Where two headings read alike, the source gives them in different places.
Assays:
[1] = biological target: T1, human nerve growth factor (human, UniProt P01138 122-241); assay: BIAcore SPR, Fab over immobilised human NGF
T1 construct: Immobilised on CM5 chips for BIAcore, soluble in neuron survival assays; also called human NGF; hNGF

[2] = biological target: T1, human nerve growth factor; assay: cell-based or functional assay
rat nerve growth factor [3] = biological target: T2, rat nerve growth factor (rat, UniProt P25427 122-241); assay: cell-based or functional assay
[4] = biological target: T1, human nerve growth factor; assay: BIAcore SPR screen, Fab over immobilised human NGF
Protocol: (§1) A screening BIAcore assay was optimized to determine the affinity of Fab clones from libraries. Supernatants of small culture lysates were injected at […] for 2 min. Dissociation times of 10 to 15 minutes were used for determination of a single exponential dissociation rate (koff) using BIAevaluation software. […] Clones showing improved (slower) koff values were expressed at large scale and full kinetic parameters, kₒₙ and koff, were determined on purified protein.
(§2) For affinity screening experiments, each library was further paired with the corresponding CDR-grafted light or heavy chain (for example, the H1/H2 library was paired with CDR-grafted light chain), the antibody was expressed, and affinity to human NGF of the individual clones was screened using the BIACORE surface plasmon resonance (SPR) system (BIAcore, Inc. Piscataway, N.J.) according to the manufacturer's instructions and as described above. koff, kₒₙ and KD were determined. Antibody clones were ranked based on koff rates, since generally most variation in affinity is seen in koff rates, and further because koff rates are independent of antibody concentration.

[5] = biological target: T1, human nerve growth factor; assay: BIAcore SPR screen, Fab over immobilised human NGF; remark: listed apart in the source
Protocol: as §1
(§3) 20-80 clones from each small library were screened using BIAcore analysis as described herein. Samples were simultaneously analyzed by BIAcore for binding affinity to NGF in one channel of the BIAcore chip and for presence of Fab by binding to a penta-histag antibody in another channel of the sensor chip, to detect the his tag at the C terminus of the heavy chain. Clones that expressed protein were classified as having the same affinity, worse affinity, better affinity or no binding, using koff to classify: The results of this analysis are shown in Table 5.

[6] = biological target: T1, human nerve growth factor; assay: BIAcore SPR screen, Fab over immobilised human NGF; remark: listed apart in the source
Protocol: as §1

[7] = biological target: T1, human nerve growth factor; assay: BIAcore SPR screen, Fab over immobilised human NGF; KD calculated from koff with kon 4e4 M-1s-1
Protocol: as §1, §2

[8] = biological target: T1, human nerve growth factor; assay: as above; remark: listed apart in the source
Protocol: as §1, §3

[9] = biological target: T1, human nerve growth factor; assay: as above; remark: listed apart in the source
Protocol: as §1

[10] = biological target: T1, human nerve growth factor; assay: BIAcore SPR screen, Fab over immobilised human NGF; KD calculated from koff with kon 4e4 M-1s-1; 8L2-6D5 template, not H19-L129 template
Protocol: (§4) Affinities of anti-NGF Fabs and monoclonal antibodies were determined using the BIAcore3000™ surface plasmon resonance (SPR) system (BIAcore, INC, Piscaway N.J.). CM5 chips were activated with N-ethyl-N′-(3-dimethylaminopropyl)-carbodiinide hydrochloride (EDC) and N-hydroxysuccinimide (NETS) according to the supplier's instructions. Human NGF was diluted into 10 mM sodium acetate pH 4.0 and injected over the activated chip at a concentration of 0.005 mg/mL. Using variable flow time across the individual chip channels, two ranges of antigen density were achieved: 100-200 response units (RU) for detailed kinetic studies and 500-600 RU for screening assays. The chip was blocked with ethanolamine. […] HBS-EP buffer (0.01M HEPES, pH 7.4, 0.15 NaCl, 3 mM EDTA, 0.005% Surfactant […]) was used as running buffer for all the BIAcore assays.
as §1

[11] = biological target: T1, human nerve growth factor; assay: BIAcore SPR screen, Fab over immobilised human NGF; remark: listed apart in the source
[12] = biological target: T1, human nerve growth factor; assay: BIAcore SPR screen, Fab over immobilised human NGF; KD calculated from koff with kon 4e4 M-1s-1; screening KD calculated from koff with the fixed kon 4e4; paragraph 422 gives about 1 nM
rat nerve growth factor [13] = biological target: T2, rat nerve growth factor; assay: cell-based or functional assay; remark: listed apart in the source
[14] = biological target: T1, human nerve growth factor; assay: cell-based or functional assay; remark: listed apart in the source
[15] = biological target: T1, human nerve growth factor; assay: BIAcore SPR, Fabs over immobilised human NGF
Protocol: as §4
(§5) Briefly, several concentrations of antibodies (Fabs) were injected for 2 minutes onto a CM5 chip with 100 RU of immobilized human NGF on it, and permitted to dissociate for 1800 seconds. […] Data was analyzed using BIAevaluation software following the manufacturer's instructions.

[16] = biological target: T1, human nerve growth factor; assay: BIAcore SPR, Fab over immobilised human NGF (100 RU)
Protocol: as §4, §5

[17] = biological target: T1, human nerve growth factor; assay: BIAcore SPR, purified Fab over immobilised human NGF (100 RU); purified Fab E3, 100 RU NGF on chip
Protocol: as §4, §5

[18] = biological target: T1, human nerve growth factor; assay: BIAcore SPR, purified Fab over immobilised human NGF (100 RU); purified Fab 3C, 100 RU NGF on chip
Protocol: as §4, §5

T2 sequence (P25427 122-241 limits assumed): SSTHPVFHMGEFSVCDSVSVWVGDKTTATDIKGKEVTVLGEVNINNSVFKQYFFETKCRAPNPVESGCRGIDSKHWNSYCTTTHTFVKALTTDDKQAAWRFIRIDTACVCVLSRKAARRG
T1 sequence (P01138 122-241 limits assumed): as the sequence (P25427 122-241 limits assumed) above, with T3S, V6I, M9R, T37M, A60D, E65D, T92M, D94G, A117V, G120A counted along it

| Binder | Kd [1] [nM] | IC50, human NGF-dependent survival of mouse E13.5 trigeminal neurons (1.5 pM NGF) [2] [pM] | IC50, human NGF-dependent survival of mouse E13.5 trigeminal neurons (15 pM NGF) [2] [pM] | IC50, rat NGF-dependent survival of mouse E13.5 trigeminal neurons (1.5 pM NGF) (rat nerve growth factor [3]) [pM] | IC50, rat NGF-dependent survival of mouse E13.5 trigeminal neurons (15 pM NGF) (rat nerve growth factor [3]) [pM] | koff [6] [s⁻¹] | Kd [9] [nM] | other results |
| --- | --- | --- | --- | --- | --- | --- | --- | --- |
| 8L2-4D5 (CDR-grafted antibody, template) (Fab, V domains shown) VH: QVQLQESGPGLVKPSETLSLTCTVSGFSLIGYDINWIRQPPGKGLEWIGMIWGDGTTDYNSALKSRVTISVDTSKNQFSLKLSSVTAADTAVYYCARGGYYYGTSYYFDYWGQGTLVTVS VL: DIQMTQSPSSLSASVGDRVTITCRASQDISNHLNWYQQKPGKAPKLLIYYISRFHSGVPSRFSGSGSGTDFTFTISSLQPEDIATYYCQQSKTLPYTFGQGTKLEIKR | ~38 |  |  |  |  |  |  |  |
| 8L2-6D5 (CDR-grafted antibody with framework mutation V71K) (Fab, V domains shown, Fab (human IgG2 CH1 + C-kappa, His tag at heavy chain C terminus); also called 8L2-6D5 Fab; 8L2-6D5 (control)) VH: QVQLQESGPGLVKPSETLSLTCTVSGFSLIGYDINWIRQPPGKGLEWIGMIWGDGTTDYNSALKSRVTISKDTSKNQFSLKLSSVTAADTAVYYCARGGYYYGTSYYFDYWGQGTLVTVS VL: DIQMTQSPSSLSASVGDRVTITCRASQDISNHLNWYQQKPGKAPKLLIYYISRFHSGVPSRFSGSGSGTDFTFTISSLQPEDIATYYCQQSKTLPYTFGQGTKLEIKR | ~15 | 462 | 1580 | 169 | 730 | 0.001 | 25 | koff [4]: 0.001 s⁻¹; koff [5]: 0.001 s⁻¹; Kd [7]: 25 nM; Kd [8]: 25 nM |
| 8L2-6D5 template Fab with L_S91E; L_K92R and H_Y101W; H_G103A (Fab, V domains shown, See note of m8) VH: QVQLQESGPGLVKPSETLSLTCTVSGFSLIGYDINWIRQPPGKGLEWIGMIWGDGTTDYNSALKSRVTISKDTSKNQFSLKLSSVTAADTAVYYCARGGYWYATSYYFDYWGQGTLVTVS VL: DIQMTQSPSSLSASVGDRVTITCRASQDISNHLNWYQQKPGKAPKLLIYYISRFHSGVPSRFSGSGSGTDFTFTISSLQPEDIATYYCQQERTLPYTFGQGTKLEIKR |  |  |  |  |  | 0.0001 |  | Kd [10]: 2.5 nM |
| H19-L129 (combined clone, H1 H2 L1 L2 matured) (Fab, V domains shown, See note of m8; also called H19-L129 Fab; Fab H19-L129) VH: QVQLQESGPGLVKPSETLSLTCTVSGFSLIGYDLNWIRQPPGKGLEWIGIIWGDGTTDYNSAVKSRVTISKDTSKNQFSLKLSSVTAADTAVYYCARGGYYYGTSYYFDYWGQGTLVTVS VL: DIQMTQSPSSLSASVGDRVTITCRASQSISNNLNWYQQKPGKAPKLLIYYTSRFHSGVPSRFSGSGSGTDFTFTISSLQPEDIATYYCQQSKTLPYTFGQGTKLEIKR | ~1 | 9.6 | 60.1 | 6 | 31 | 0.00011 |  | koff [11]: 0.00011 s⁻¹; Kd [12]: ~2.75 nM |
| H19-L129 template Fab with L_S91E; L_K92S and H_Y101W; H_G103S (Fab, V domains shown, See note of m8) VH: QVQLQESGPGLVKPSETLSLTCTVSGFSLIGYDLNWIRQPPGKGLEWIGIIWGDGTTDYNSAVKSRVTISKDTSKNQFSLKLSSVTAADTAVYYCARGGYWYSTSYYFDYWGQGTLVTVS VL: DIQMTQSPSSLSASVGDRVTITCRASQSISNNLNWYQQKPGKAPKLLIYYTSRFHSGVPSRFSGSGSGTDFTFTISSLQPEDIATYYCQQESTLPYTFGQGTKLEIKR |  |  |  |  |  | 4.7e-05 | 1.1 |  |
| antibody E3 (Fab) (Fab, V domains shown, Fab with human IgG2 CH1 and human kappa constant domain; His tag at the heavy chain C terminus in the E. coli format; also called Fab E3; 3E Fab) VH: QVQLQESGPGLVKPSETLSLTCTVSGFSLIGYDLNWIRQPPGKGLEWIGIIWGDGTTDYNSAVKSRVTISKDTSKNQFSLKLSSVTAADTAVYYCARGGYWYATSYYFDYWGQGTLVTVS VL: DIQMTQSPSSLSASVGDRVTITCRASQSISNNLNWYQQKPGKAPKLLIYYTSRFHSGVPSRFSGSGSGTDFTFTISSLQPEDIATYYCQQEHTLPYTFGQGTKLEIKR |  | < 1.2 | < 21 | < 1.3 | < 8.3 | 1.2e-05 | 0.3 | IC50, rat NGF-dependent survival of mouse E13.5 trigeminal neurons (15 pM NGF) (rat nerve growth factor [13]): ~31.6 pM; IC50 (read off the curve), NGF-dependent survival of E13.5 mouse trigeminal neurons (0.4 ng/ml human NGF, 48 h) [14]: ~0.02 nM binding sites; fold higher binding affinity than parent mouse antibody 911 [15]: ~50 fold; Kd [16]: ≤ 0.07 nM; koff [16]: < 4e-05 s⁻¹; kon [16]: 600000 M⁻¹ s⁻¹; koff [17]: ~4.2e-05 s⁻¹ |
| clone 3C (Fab) (Fab, V domains shown, same L1, L2, H1, H2 mutations as 3E; See note of m8; also called Fab 3C) VH: QVQLQESGPGLVKPSETLSLTCTVSGFSLIGYDLNWIRQPPGKGLEWIGIIWGDGTTDYNSAVKSRVTISKDTSKNQFSLKLSSVTAADTAVYYCARGGYWYATSYYFDYWGQGTLVTVS VL: DIQMTQSPSSLSASVGDRVTITCRASQSISNNLNWYQQKPGKAPKLLIYYTSRFHSGVPSRFSGSGSGTDFTFTISSLQPEDIATYYCQQERTLPYTFGQGTKLEIKR |  | 5.6 | 80.9 | 6 | 31.6 | 1.4e-05 | 0.35 | Kd [18]: ~0.35 nM; koff [18]: ~1.4e-05 s⁻¹ |
